How the values were obtained:
[1] = target: T1, GST-Freud-2 (GST-hF2) (Homo sapiens, UniProt Q5T0F9 1-858); assay: competition
T1 sequence: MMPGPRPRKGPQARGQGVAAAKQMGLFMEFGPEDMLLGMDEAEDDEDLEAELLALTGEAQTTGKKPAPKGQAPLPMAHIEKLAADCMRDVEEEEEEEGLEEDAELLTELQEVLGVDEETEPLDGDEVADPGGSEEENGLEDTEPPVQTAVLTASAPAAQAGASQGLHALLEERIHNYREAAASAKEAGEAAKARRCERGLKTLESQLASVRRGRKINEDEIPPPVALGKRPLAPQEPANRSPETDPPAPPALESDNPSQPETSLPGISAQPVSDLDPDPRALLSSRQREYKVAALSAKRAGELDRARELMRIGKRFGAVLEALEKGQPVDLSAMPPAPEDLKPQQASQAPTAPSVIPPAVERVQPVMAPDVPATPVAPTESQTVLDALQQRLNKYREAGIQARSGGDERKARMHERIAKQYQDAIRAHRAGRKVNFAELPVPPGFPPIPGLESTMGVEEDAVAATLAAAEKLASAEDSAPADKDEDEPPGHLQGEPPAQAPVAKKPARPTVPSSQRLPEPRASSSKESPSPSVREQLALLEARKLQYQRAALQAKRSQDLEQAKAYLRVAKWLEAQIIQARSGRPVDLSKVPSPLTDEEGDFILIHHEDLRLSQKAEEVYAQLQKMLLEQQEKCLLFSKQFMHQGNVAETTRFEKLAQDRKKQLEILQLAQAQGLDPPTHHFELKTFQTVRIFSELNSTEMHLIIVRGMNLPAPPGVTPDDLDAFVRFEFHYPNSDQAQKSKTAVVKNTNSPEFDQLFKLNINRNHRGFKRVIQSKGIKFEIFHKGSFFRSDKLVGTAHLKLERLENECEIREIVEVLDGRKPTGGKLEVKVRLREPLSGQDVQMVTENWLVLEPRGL

[2] = target: T1, GST-Freud-2 (GST-hF2); assay: competition; remark: listed apart in the source
[3] = target: T1, GST-Freud-2 (GST-hF2); assay: EMSA
[4] = target: T1, GST-Freud-2 (GST-hF2); assay: EMSA; remark: listed apart in the source
[5] = target: T1, GST-Freud-2 (GST-hF2); assay: competition; remark: listed apart in the source

B1: 19-bp 3' (-1597/-1578) (dsDNA)
DNA 1: AGGTGGCGACATAAAACCT
DNA 2: AGGTTTTATGTCGCCACCT
B1: binds [1].

B2: 17-bp 5' (-1624/-1608) (dsDNA)
DNA 1: AGATGGCACTCTAAAAC
DNA 2: GTTTTAGAGTGCCATCT
B2: binds [2].

B3: 3'-DRE (-1597/-1565) (dsDNA)
DNA 1: AGGTGGCGACATAAAACCTCATTGCTTAGAACT
DNA 2: AGTTCTAAGCAATGAGGTTTTATGTCGCCACCT
B3: binds [3].

B4: 5'-DRE (-1624/-1598) (dsDNA)
DNA 1: AGATGGCACTCTAAAACATTTGCCAGA
DNA 2: TCTGGCAAATGTTTTAGAGTGCCATCT
B4: binds [4].

B5: 16-bp 5' (-1613/-1598) (dsDNA)
DNA 1: TAAAACATTTGCCAGA
DNA 2: TCTGGCAAATGTTTTA
B5: binds [2].

B6: 12-bp 3' (-1578/-1566) (dsDNA)
DNA 1: CATTGCTTAGAA
DNA 2: TTCTAAGCAATG
B6: no binding [5].
